This is an account of results in publication PMC7468311 (Acta Pharmacologica Sinica, 2020).

Assay [1] concerns the target direct thrombin inhibitor peptide (DTIP). The assay can be described thus: BLI. For orientation: Biolayer interferometry detects binding as a change in optical thickness at a sensor tip.
Another assay has as its target DTIP D24A mutant. The experiment in a line: BLI.
A further assay concerns the target DTIP C6A-C14A mutant. The assay can be described thus: BLI.
The next assay concerns the target DTIP Y3A mutant. The assay can be described thus: BLI.
For the next assay, the target named is DTIP E35A mutant. The assay can be described thus: BLI.
Another assay concerns the target thrombin (Homo sapiens, UniProt P00734). The experiment in a line: Bio-layer interferometry. The assay is classed as binding.
The subject of assay [2] is rat plasma. The experiment in a line: Plasma clotting measurement in vitro, PT. Type of assay: biochemical, Sprague Dawley (SD) rats. To be noted: at the same concentration.
The test system of assay [3] is rat plasma. The experiment in a line: Plasma clotting measurement in vitro, TT. Type of assay: biochemical, Sprague Dawley (SD) rats. Conditions: at the same concentration.
Assay [4] relates to rat plasma. The experiment in a line: Plasma clotting measurement in vitro, aPTT. The assay is classed as biochemical, Sprague Dawley (SD) rats. Conditions: at the same concentration.

“Also recorded” adds a separate entry of the source.

For orientation: Kd means the equilibrium constant for the complex coming apart. With thrombin (enzyme), the equilibrium dissociation constant (Kd) is 0.164 µM in assay [1]; 0.194 µM in the assay with DTIP D24A mutant; 0.138 µM in the assay with DTIP C6A-C14A mutant; 0.162 µM with DTIP Y3A mutant; 0.188 µM with DTIP E35A mutant.

Take enoxaparin sodium: at thrombin, the “Binding of thrombin in BLI (in words)” value was “no direct interaction; also recorded: No binding”.

As for bivalirudin, the “PT of DTIP compared with bivalirudin” value with rat plasma [2] is “on the same order of magnitude”. Further, the “TT of DTIP compared with bivalirudin” value in the assay on rat plasma [3] is “on the same order of magnitude”. Moreover, the “aPTT of DTIP compared with bivalirudin” value in the assay with rat plasma [4] is “on the same order of magnitude”.
